According to article PMC6265244, “A synthetic microbial biosensor for high-throughput screening of lactam biocatalysts” (Nature Communications, 2018):

Assays:
[1] = biological target: 3-hydroxybutyrate dehydrogenase from Citrobacter freundii (CF3HBD) (Citrobacter freundii); test: crystal structure; hanging-drop vapor diffusion at 20 °C, protein with 5 mM NAD+, 3.2 M sodium acetate pH 6.5; space group P2_(1), four molecules in an asymmetric unit
SM3HBD = biological target: T1, SM3HBD (Serratia marcescens, UniProt A0A2F0PAS1); test: cyclization assay with purified enzyme, ε-caprolactam formed; assay type: biochemical
T1 construct: gene DMW51_14370
T1 sequence (A0A2F0PAS1 1-256): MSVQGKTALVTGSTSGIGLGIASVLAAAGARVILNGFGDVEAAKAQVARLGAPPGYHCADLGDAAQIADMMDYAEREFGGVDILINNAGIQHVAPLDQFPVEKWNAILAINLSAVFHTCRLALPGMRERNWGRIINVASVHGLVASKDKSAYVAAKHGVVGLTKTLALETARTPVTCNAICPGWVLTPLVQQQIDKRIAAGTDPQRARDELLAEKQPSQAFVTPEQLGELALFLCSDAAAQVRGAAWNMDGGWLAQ

CF3HBD = biological target: T2, CF3HBD (Citrobacter freundii, UniProt A0A0D7LY80); test: X-ray crystal structure, […] Å; assay type: binding; settings: 5 mM NAD+, 3.2 M sodium acetate pH 6.5, 20 °C
T2 construct: gene AI2602V1_2506; tetramer in the asymmetric unit (two subunits NAD+-free)
T2 sequence (A0A0D7LY80 1-256): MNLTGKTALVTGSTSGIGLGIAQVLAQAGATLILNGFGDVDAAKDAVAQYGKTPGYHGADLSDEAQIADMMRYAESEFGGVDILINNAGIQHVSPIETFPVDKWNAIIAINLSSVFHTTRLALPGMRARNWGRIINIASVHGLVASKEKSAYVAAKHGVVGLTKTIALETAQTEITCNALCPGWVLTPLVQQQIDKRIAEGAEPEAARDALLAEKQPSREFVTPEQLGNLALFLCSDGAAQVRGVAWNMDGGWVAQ

[2] = substrate: NCCCCCC(=O)O; test: LC-MS of caprolactam formed, Michaelis-Menten fit; assay type: biochemical, Citrobacter freundii; settings: 50 mM HEPES pH 7.5, 35 °C, 10 min, no cofactor or metal, cyclization to ε-caprolactam

Molecule: 3-hydroxybutyrate dehydrogenase from Citrobacter freundii (CF3HBD) (enzyme)
- stoichiometry N [1]: 4

Molecule: NCCCCCC(=O)O [6-aminocaproic acid]
- cyclization assay with purified enzyme, ε-caprolactam formed (SM3HBD): both enzymes showed cyclization activity towards 6-ACA to produce ε-caprolactam

Molecule: NC(=O)c1ccc[n+]([C@@H]2O[C@H](COP(=O)(O)OP(=O)(O)OC[C@H]3O[C@@H](n4cnc5c(N)ncnc54)[C@H](O)[C@@H]3O)[C@@H](O)[C@H]2O)c1 [NAD^+]
- X-ray crystal structure, 2.29 Å (CF3HBD): we determined the crystal structure of CF3HBD in complex with NAD^+

B1: CF3HBD (Citrobacter freundii) (protein)
chain: T2 sequence (A0A0D7LY80 1-256)
notes: tetramer in the asymmetric unit (two subunits NAD+-free)
- Km [2]: 3.3 ± 0.3 mM
- kcat [2]: 0.0012 ± 3.33e-05 s⁻¹
- kcat/Km [2]: 0.363 ± 0.03 M⁻¹ s⁻¹
